Assay results reported in paper PMC10022624, “A mini-TGA protein modulates gene expression through heterogeneous association with transcription factors” (Plant Physiology, 2022).

T1: StTGA2.3 (Solanum tuberosum cv. Rywal, UniProt A0A9F1U446 1-327)
T1 sequence: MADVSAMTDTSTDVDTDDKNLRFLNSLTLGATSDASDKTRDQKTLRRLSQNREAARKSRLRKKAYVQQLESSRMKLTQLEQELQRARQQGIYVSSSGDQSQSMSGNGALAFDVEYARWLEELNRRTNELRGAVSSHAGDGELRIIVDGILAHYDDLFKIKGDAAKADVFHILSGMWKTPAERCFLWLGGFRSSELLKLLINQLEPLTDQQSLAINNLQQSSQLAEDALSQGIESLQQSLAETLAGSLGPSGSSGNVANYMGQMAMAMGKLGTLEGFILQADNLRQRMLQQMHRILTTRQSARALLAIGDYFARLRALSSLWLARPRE

T2: StTGA2.1 (mini-TGA) (Solanum tuberosum cv. Rywal, UniProt A0A9F1U434 1-270)
T2 sequence: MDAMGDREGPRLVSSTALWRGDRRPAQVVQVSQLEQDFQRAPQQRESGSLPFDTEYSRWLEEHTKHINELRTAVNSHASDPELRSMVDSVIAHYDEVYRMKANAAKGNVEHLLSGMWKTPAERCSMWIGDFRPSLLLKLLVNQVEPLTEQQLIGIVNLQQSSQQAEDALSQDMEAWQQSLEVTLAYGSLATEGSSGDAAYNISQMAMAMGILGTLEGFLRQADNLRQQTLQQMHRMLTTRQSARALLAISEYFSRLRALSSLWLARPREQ

T3: StTGA2.3;StTGA2.1 (mini-TGA) (Solanum tuberosum cv. Rywal;Solanum …, UniProt A0A9F1U446;A0A9F1U434 1-327;1-270, |)
T3 sequence 1: T1 sequence
T3 sequence 2: T2 sequence

B1: His6-tagged StTGA2.1, recombinant (natural protein, potato (Solanum tuberosum), UniProt A0A9F1U434 1-270, looked up)
chain: T2 sequence
notes: StTGA2.1, potato (Solanum tuberosum) cultivar Rywal; full-length cds in pMCSG7; C-terminal region printed as aa 47-240; Dimer by SEC elution volume; The tag is removable by TEV protease; not shown: His6, N-terminal, kept
B2: PRX15p_1 (dsDNA)
DNA 1: GTTACTACTCGAGCGTTTAATAATGATGACATTTG
DNA 2: CAAATGTCATCATTATTAAA
B3: PRX07p_2 (dsDNA)
DNA 1: GTTACTACTCGAGCGTTAGGGGTGACGTTTCCAAT
DNA 2: ATTGGAAACGTCACCCCTAA
B4: PRX46p (dsDNA)
DNA 1: GTTACTACTCGAGCGTGAACCTGAGGTCAACCGTT
DNA 2: AACGGTTGACCTCAGGTTCA
B5: PRX07p_1 (dsDNA)
DNA 1: GTTACTACTCGAGCGTGTGCCCAACGTCACAATCC
DNA 2: GGATTGTGACGTTGGGCACA

How the values were obtained:
[1] = target: HA-tagged StTGA2.3, expressed in N. benthamiana (potato (Solanum tuberosum))
[2] = target: the molecule itself; assay: SEC; His6-tagged StTGA2.1; oligomeric state from elution volume against the Gel Filtration LMW calibration kit; 30 mM Tris pH 7.5, 400 mM NaCl
[3] = target: T1, StTGA2.3; assay: SPR; 1 mM Mg2+; interaction negligible; SPR Biacore T200, 25 C, 25 mM Tris pH 7.4, 140 mM NaCl (180 mM for StTGA2.1 alone), 1 mM MgCl2, 0.005% P20; settings: protein: ivt; tags: C-terminal GS peptide; chain copies: 2; 5' overhang 15 nt on strand 1
[4] = target: T2, StTGA2.1 (mini-TGA); assay: SPR; 18.75-300 nM protein; 180 mM NaCl; 1 mM Mg2+; SPR Biacore T200, 25 C, 25 mM Tris pH 7.4, 140 mM NaCl (180 mM for StTGA2.1 alone), 1 mM MgCl2, 0.005% P20; settings: protein: recombinant; tags: N-terminal His6; chain copies: 2; 5' overhang 15 nt on strand 1
[5] = target: T3, StTGA2.3;StTGA2.1 (mini-TGA); assay: SPR; premixed with 300 nM StTGA2.1; higher response than StTGA2.3 alone; SPR Biacore T200, 25 C, 25 mM Tris pH 7.4, 140 mM NaCl (180 mM for StTGA2.1 alone), 1 mM MgCl2, 0.005% P20; settings: protein: ivt;recombinant; tags: C-terminal GS peptide;N-terminal His6; copies: 1;1; 5' overhang 15 nt on strand 1
[6] = target: T1, StTGA2.3; assay: SPR; 1 mM Mg2+; dose-dependent response; SPR Biacore T200, 25 C, 25 mM Tris pH 7.4, 140 mM NaCl (180 mM for StTGA2.1 alone), 1 mM MgCl2, 0.005% P20; settings: protein: ivt; tags: C-terminal GS peptide; chain copies: 2; 5' overhang 15 nt on strand 1

| Molecule | binding result [3] | binding result [4] | binding result [5] | binding result [6] | also measured |
| --- | --- | --- | --- | --- | --- |
| StTGA2.1, GFP- or HA-tagged, expressed in N. benthamiana (natural protein) | – | – | – | – | StPRX07::LucF promoter activity (luciferase transactivation assay) in N. benthamiana leaves coexpressing GFP-tagged StTGA2.1 and BFP-tagged StTGA2.3, compared to control [1]: > 2 fold |
| B1 | – | – | – | – | stoichiometry N [2]: 2 |
| B2 | no binding | no binding | – | – | – |
| B3 | – | no binding | binds | binds | – |
| B4 | no binding | no binding | – | – | – |
| B5 | – | no binding | binds | binds | – |
